Legend:
[1] = test system: SP-1 zinc finger domain (Homo sapiens); assay: EMSA; conditions: MBP fusion, same conditions; target sequence not given
Zif268 (Mus musculus) = assay: EMSA; conditions: MBP fusion, same conditions; target sequence not given
VEGF1-KRAB = target: T1, VEGF1-KRAB (synthetic, UniProt P08047 SEQ:1-99); assay: cell_activity; endogenous VEGF ELISA, DFX-treated 293 cells; conditions: tags: SV40 NLS, KRAB (KOX1), FLAG
T1 chain: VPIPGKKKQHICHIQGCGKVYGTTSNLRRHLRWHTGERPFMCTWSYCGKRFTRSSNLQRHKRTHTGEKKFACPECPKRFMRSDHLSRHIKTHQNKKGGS
Protocol: Eighteen hours post transfection, the 293 cells were induced by treatment with 100 μM DFX (desferrioxamine), resulting in a rapid and lasting transcriptional activation of the VEGF gene and also in a gradual increase in VEGF mRNA stability (Ikeda et al., J. Biol. Chem. 270:19761-19766 (1995)). Under routine culture conditions, 293 cells secrete a low level of VEGF in the culture media. The cells were allowed to incubate an additional 24 hours before the supernatants were collected for determination of VEGF levels by an ELISA assay.

VEGF3a/1 six-finger ZFP [2] = target: T2, VEGF3a/1 six-finger ZFP (synthetic); assay: EMSA; apparent Kd, 37 C; complex half-life more than 10x longer than VEGF1; conditions: tags: N-terminal MBP fusion; label: 5'-32P
T2 chain: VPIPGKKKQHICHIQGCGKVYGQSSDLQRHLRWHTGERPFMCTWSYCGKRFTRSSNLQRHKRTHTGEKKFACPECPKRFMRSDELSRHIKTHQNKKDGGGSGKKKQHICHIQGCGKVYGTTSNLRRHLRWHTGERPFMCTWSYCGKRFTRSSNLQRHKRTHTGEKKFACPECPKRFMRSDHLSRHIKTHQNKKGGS
Protocol: (§1) For the EMSA studies, 20 μl binding reactions contained 10 fmole (0.5 nM) 5′-³²P-labeled double-stranded target DNA, 35 mM Tris HCl (pH 7.8), 100 mM KCl, 1 mM MgCl₂, 5 mM dithiothreitol, 10% glycerol, 20 μg/ml poly dI-dC, 200 μg/ml bovine serum albumin, and 25 μM ZnCl₂. Protein was added as one fifth volume from a 3-fold dilution series. Binding was allowed to proceed for 60 min at either room temperature or 37° C. Polyacrylamide gel electrophoresis was carried out at room temperature or 37° C. using precast 10% or 10-20% Tris-HCl gels (BioRad) and standard Tris-Glycine runmning buffer. […] Thus, the 18-bp binding ZFP bound with high affinity to its target site. In a parallel experiment, VEGF1 protein was tested against its target using the oligonucleotides described in Example I, yielding an apparent Kd of approximately 2.5 nM.
The apparent Kd is a useful measure of the affinity of a protein for its DNA target. However, for a DNA binding site either in vitro or in vivo, its occupancy is determined to a large extent by the off-rate of the DNA-binding protein. The conditions for EMSA were as described above; binding and electrophoresis were performed at 37° C. […] Thus, under these in vitro conditions, the occupancy of the target site is much higher for the 18-bp binding protein than for the 9-bp binding protein.

VEGF3a/1 six-finger ZFP [3] = target: T2, VEGF3a/1 six-finger ZFP; assay: EMSA; apparent Kd, room temperature, 25 uM ZnCl2, poly dI-dC; conditions: tags: N-terminal MBP fusion; label: 5'-32P
Protocol: as §1

SP-1 target (sequence not stated)
Kd [1]: 65 nM

Zif268 target (sequence not stated)
Kd (Zif268 (Mus musculus)): 60 nM

B1: endogenous VEGF promoter target region (dsDNA)
DNA 1: AGCGGGGAGGATCGCGGAGGCTTGG
DNA 2: CCAAGCCTCCGCGATCCTCCCCGCT
activity (VEGF1-KRAB): 2 fold repression

B2: JVF9/JVF10 VEGF 18-bp target (dsDNA)
DNA 1: AGCGAGCGGGGAGGATCGCGGAGGCTTGGGGCAGCCGGGTAG
DNA 2: CGCTCTACCCGGCTGCCCCAAGCCTCCGCGATCCTCCCCGCT
Kd (VEGF3a/1 six-finger ZFP [2]): ~9 nM | Kd (VEGF3a/1 six-finger ZFP [3]): ~1.5 nM
